Results from paper PMC7307210.

Target: SAR1A (human) (UniProt Q9NR31)
Assay: liposome flotation assay; SAR1 and SEC31A-af incubated with 100-nm synthetic liposomes and GMP-PNP, 30 min at 37 °C, floated through a sucrose gradient in HKM buffer (pH 6.8); SDS-PAGE and SYPRO-Ruby staining; SEC31-af signal normalized to SAR1

fold recruitment relative to SAR1B: 2 fold
Substance: GTPase-activating fragment of SEC31A (from UniProt O94979 1-1220) (domain or fragment)
